Patent publication US20200262898A1 (INTEGRAL MOLECULAR, published 2020)
One block for each binder: values may come before it.

What was measured:
[1] = biological target: T1, Fc-binding protein (the ZZ domain of ProA); assay: flow cytometry on cells expressing the Fc-binding ZZ domain on their surface; given as a measure of expression
T1 construct: domain: ZZ domain of ProA; the construct is not described
Source text: (§1) Antibodies were generated using the common light chains B9, F10, C11, and H11 paired with 8 different heavy chains. […] Binding is expressed as Signal:Background for binding to the molecular target of the heavy chain antibody (listed at top of Table 4). Expression is based on binding to cells expressing an Fc-binding protein (the ZZ domain of ProA) (ZZ) on their surface, enabling total antibody to bind and be measured. Detection was using flow cytometry with cells transfected to express the target protein. Background binding S:B is normalized to 1.0, using mock-transfected cells as background. The data in the table below illustrate that the light chains can be used with a variety of heavy chains and the antibody generated from a VH that can bind to the light chains B9 and F10 will function and bind to the target of interest.

[2] = biological target: T2, CD59 (UniProt P13987 26-102, limits assumed); assay: flow cytometry on cells transfected with the target; signal over mock-transfected cells (background = 1.0)
T2 construct: whole, on cells
T2 sequence (looked up): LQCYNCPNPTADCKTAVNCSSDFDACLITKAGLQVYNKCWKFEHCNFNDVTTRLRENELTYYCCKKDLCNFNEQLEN
Source text: as §1

- S:B Expression [1]: 11.8 S:B
- S:B Binding [2]: 0.7 S:B
B1: Antibody of common light chain B9 (B9chicken) paired with the heavy chain against CD59 (antibody, V domains shown)
VH: AVTLDESGGGLQTPGGGLSLVCKASGFDFSSFDMVWVRQAPGKGLEWVAGISYSNTDTSYAPAVDGRATISRDNGQSTVRLQLNNLRAEDSATYYCAKSAGGCCYRADNIDAWGHGTEVIVSS
VL: ALTQPSSVSANPGETVKITCSGGGSSNYYGWYQQKSPGSAPVTLIYGTNKRPSDIPSRFSGSKSGSTGTLTITGVQADDEAVYFCGSADSSTNAGIFGAGTTLTVL
notes: also called HC-CD59

- S:B Expression [1]: 12.2 S:B
- S:B Binding [2]: 1.4 S:B
B2: Antibody of common light chain C11 (C11chicken) paired with the heavy chain against CD59 (antibody, V domains shown)
VH: B1 VH
VL: ALTQPSSVSANPGETVKITCSGGGSWYGSYYYGWYQQKSPGSAPVTLIYNNDKRPSDIPSRFSGSESGSTATLTITGVQAEDEAVYFCGGYDSTTTDMFGAGTTLTVL
notes: also called HC-CD59
